Measurements taken from article PMC4046987.

System: HfqBc (Hfq6) (Burkholderia cenocepacia J2315)
Test: EMSA
Conditions: no MtvR; complexes seen only at 500 nM HfqBc or higher; excess yeast tRNA; 20 mM Tris-Cl pH 8.0, 1 mM DTT, 1 mM MgCl2, 10 mM KCl, 10 mM KH2PO4, excess yeast tRNA, 30 min at 25 C; native 8% PAGE with 10% glycerol

hfqEc full mRNA (5'-UTR + CDS)
Kd: 11.6 µM
